Consider 2 molecules from publication PMC6573788.

For experiment [1], the target named is ΔRACK1 40S ribosomal subunit (human 40S subunit without RACK1) (human (endogenous in HAP1)) (UniProt P23396). Kind of experiment: native gel or EMSA.
For experiment [2] the target is unchanged. The experiment is described as follows: FRET or BRET. For orientation: Bioluminescence resonance energy transfer reports proximity on the nanometre scale.

Regarding “native RACK1-ybbR expressed in ΔRACK1 HAP1 cells (from UniProt P63244 1-317) (natural protein)”, in experiment [1], the t1/2 of RACK1 on the ribosome was 15 h.

B1: recombinant Asc1p-ybbR (S. cerevisiae RACK1 ortholog) (natural protein)
chain: MASNEVLVLRGTLEGHNGWVTSLATSAGQPNLLLSASRDKTLISWKLTGDDQKFGVPVRSFKGHSHIVQDCTLTADGAYALSASWDKTLRLWDVATGETYQRFVGHKSDVMSVDIDKKASMIISGSRDKTIKVWTIKGQCLATLLGHNDWVSQVRVVPNEKADDDSVTIISAGNDKMVKAWNLNQFQIEADFIGHNSNINTLTASPDGTLIASAGKDGEIMLWNLAAKKAMYTLSAQDEVFSLAFSPNRYWLAAATATGIKVFSLDPQYLVDDLRPEFAGYSKAAEPHAVSLAWSADGQTLFAGYTDNVIRVWQVMTAN
In experiment [2], B1 came in with a kobs of the fast phase at 75 nM of 0.2 s⁻¹ and a kon of the fast phase of 2e+06 M⁻¹ s⁻¹.
